Where two headings read alike, the source gives them in different places. Each block holds one substance with its values, some of them ahead of it.
Experiments:
ubiquitin (Homo sapiens) [1] = biological target: ubiquitin (Homo sapiens) (UniProt P0CG48); conditions: cited from earlier work
Atto532-tUI [2] = biological target: Atto532-tUI (UniProt Q9UMX0); assay: other fluorescence titration
ubiquitin (Homo sapiens) [3] = biological target: ubiquitin (Homo sapiens) (UniProt P0CG48); conditions: cited from earlier work; remark: listed apart in the source
tUI = tUI (UniProt Q9UMX0); assay: other fluorescence titration
Atto532-tUI [4] = biological target: Atto532-tUI (UniProt Q9UMX0); assay: stopped-flow fluorescence kinetics

Sequence of Rabex5 RUZ RUZ (Q9UJ41 13-47): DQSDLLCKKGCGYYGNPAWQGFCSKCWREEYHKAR
Sequence of Nedd8 (Q15843 1-76): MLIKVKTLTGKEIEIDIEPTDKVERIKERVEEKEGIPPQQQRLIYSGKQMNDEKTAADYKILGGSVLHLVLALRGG
Sequence of IsoT BUZ BUZ (P45974 173-289): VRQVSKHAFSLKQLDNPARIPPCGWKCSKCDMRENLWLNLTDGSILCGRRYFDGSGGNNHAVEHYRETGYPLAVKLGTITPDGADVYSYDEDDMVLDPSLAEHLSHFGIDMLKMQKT

Substance: IsoT BUZ BUZ (from UniProt P45974)
Kd (ubiquitin (Homo sapiens) [1]): 3000 nM

fold higher affinity for Ub than Nedd8 (Atto532-tUI [2]): 120 fold
Substance: Nedd8 (from UniProt Q15843 1-76) (natural protein)

Substance: Rabex5 RUZ RUZ (from UniProt Q9UJ41)
Kd (ubiquitin (Homo sapiens) [3]): 12000 nM

Kd (Atto532-tUI [2]): 0.066 nM | Ki (tUI): 0.194 nM | Kd (Atto532-tUI [4]): 0.0564 nM
Substance: ubiquitin (free Ub) (from UniProt P0CG48 1-76) (natural protein)

From paper PMC6669086
